# Data published in the nanobody polyreactivity screen of Harvey et al. (2022).
# Test: yeast display, Sf9 membrane polyspecificity reagent, FACS + sequencing; frameworks hold sequencing errors
# Procedure, shortened: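 Using colony PCR, genes from sorted yeast display clones were amplified, then sequenced on MiSeq at 2 × 250 and filtered by CDR length. The clones had been stained with 10% biotinylated, detergent-solubilized Sf9 membrane reagent for 1 hour at 4 °C and sorted by FACS into low and high (top ~1%) gates on anti-HA and streptavidin fluorescence. Polyreactivity labels come from the gate of origin.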
row,Sequence,polyreactivity (PSR sort gate)
1,QVQIVESGGGLVQAGGSLRLSCAASGSTSVKYAMGWYRQAPGKERELVAAIRKRGDSTYYADSVKGRFTISRDYAKNTVYLQMNSLKPEDTAVYYFAAQYLRGRGYWGQGTQVTLSS,low polyreactivity
2,QVQIVESGGGLVQAGGSLRLSCAAYGFTFYPYAMGWYRQAPGKERELVAAITRGGSTYYADSVKGRFTISRDNEKNTVYLQMNSLKPEDTAVYYCNAYWQGYGYDYWGQGTQVTVSS,low polyreactivity
3,QVQIVESGGGLVQAGGSLRLSCADSGTTFRFNAIGWSRQAPGKERELVAAITGIGGITYYADSVKGRFTISRDNAKNTVYLQMNSLKPEDTAVYYCNAVAARYSVRNGYSTHYDYWGQGTQVTVSS,high polyreactivity
4,QVQIVESGGGLVQAGGSLRLSCDASGSIFGRNAMGWYRQAPGKERELVAAITRTGGRTYYPDSVKGRITISRDNAKNTVYLQMNSLKPEDTEVKYCARYGGYWSLKYDYWGQGTQVTVSS,high polyreactivity
5,QVQIVESGGGLVQAGGSLRLSCPASGSTFTRYPMGWYSQAPGKERELVAAISYSGSSTYYADSVKGRFTISRDNAKNTVYLEMICLIPEDTAVYYCAAGKQAPAVNYGYYYWGQCTQVTVSS,low polyreactivity
6,QVQIVESGGGLVQAGGSLRLSFAASGRIFYNYALGWYRQAPGKERELVAAISGSGGSTYYADSVKGRFTISRDNAKNTVYLQMNSLKPEVTAVYYCSTSGPQYYSRNFDYWGQGTQVTVSS,low polyreactivity
7,QVQIVESGGGLVQAGGSLSLSCAASGRTFAGNAMGWYRQAPGKEMELVASISSSGGRTYYADSVKGRFTISRDNAKNTVYLQMISLKPEDTAVYYCAARGGYVSTWTRFSKYNYWGQGTQVTVSS,high polyreactivity
8,QVQIVESGGGLVQAGGSLSLSCAASGSILDQYAMGWYRQAPGKERELVAAITAIGDSTYYADSLKGRFTISRDNAKYTVYLQMYSLKPEVTAVYYCAGTYVGSDGGDYWGQGTQVTVAS,low polyreactivity
9,QVQIVESGGGLVQAGGSLSLSCADYGSTFYHNVMGWYRQAPGKERELVASIDTGDSTNYADSVKGRFTISRDNAKNTVYLQMNSLKPEYTAVYYCNADSYPALNKRGYDYWGQGTQVTVSS,low polyreactivity
10,QVQIVESGGGLVQAGGTLRLSCAPSGRTFAPNTMGWYRHAPGKEREFVARINSRGGSTYADSVKGRFTISRDNAKNTVYLQMNSLKPEDTAVYYCARKPYRGVYRYDYWGQGTQVTVSS,high polyreactivity
11,QVQIVESGGGLVQAGVSLRLSCAASGSTFETNTMGWYRKAPGKERELVAAITTGGRTYYADSLKGRFSISRDNAKNNVYLQMNSLKPEDTAVYYCAVAYWNRQSLFRMYYWGQGTQVTVSS,high polyreactivity
12,QVQIVESGGGLVQAGVSLRLSCAPSGSTFHLNAMGWYRQAPGKERELVAAISRGGSTYYADSVKGRFTISRDNAKNTVYLQMNRLKPEDTAVYYCNAVWSNFRLGYDYWGQGTQVNVSS,high polyreactivity
13,QVQIVESGGGLVQARGSLLLSSAASGFTSNYYALGWYRHAPGKESELVAAITTGGSTHYADSVKGRFTFSRDNAQNTVYLQLNSLKQVDSAVYYCAAGTNRQQQRYFHNGGYYQYNYWGQGTQVTVSS,low polyreactivity
14,QVQIVESGGGVVQAGGSLRLICAASGSTFNPYAMGSYRQAPGKERELVAAIRGRSGRTYYADSVKGRFTISRDNAKNTVYLQMTSLIPEDTAVYYCAARFSEYRTHPSEVYYWGQGTQVTVSS,high polyreactivity
15,QVQIVESGGRIVQAGGSIRLSCAASGSTFLFYAMGRSRQAPGKERQLVAAISYSGGSTFYADSVKGRFTISRDNAKNTVYLQMNSLKPEDTAVYYCAAESYSYGFTHEYWGQGTQETVSS,high polyreactivity
16,QVQIVESGRGLVQAGGSLRLSCAASGRIFYNDLMGWYRQAPGKERELVASISTGGTTYYSDSVKGRFTISRDNAKNTVYLQMNSLKPEDTAVYYCNAGLFYAPPFYTMDYWGQGTQVTVSS,low polyreactivity
17,QVQIVESVGGLLQAGGSLRLSCAASGRIFQGYAMGWYRQAPGKERELVASISSCGRTYYADSVKGRFTISRDNAKNTVYLQFNSLTPEDTAVYYCAKRPQFFWSNPYDYWGLGTQVTVSS,high polyreactivity
18,QVQIVETGGGLVQAGGSLGLSCAASGSNFGGNTMPCYRQAPGIERALVAAISRSGGSTYYADSVKGRFTISRDIAQNSVYVQMNSLKPEDTAVYYCNRKQAGQAQGYDYWGLGTQVTVSS,high polyreactivity
19,QVQIVVSGGGLVQAGGRRRLSCAASGRFFWVYAMGWYRQAPGKERELVAAISRSGGITSYADSVKGRYTISRDNANYTVYLQMNSLKPEDTAVYCCAARSYFDGFYYWGQGAQVTVSS,high polyreactivity
20,QVQLAESGGGLVQAGGSLRLSCAASGRIFSGYAMGWSRQAPGKERELVAAITSVGSTNYADSVKGRFTISRDNAKNTVYLQMNSLKPEDTAVYYCAAKFVRPYRMYYWGQGTQVTVSS,high polyreactivity
21,QVQLAESGGGLVQAGGSLRLSCAASGRTFNLYAMGWYRQAPGKERELVASISSGGSTYYADSVKGRFTISRDNAKNTVYLQMNSLIPEDTAVYYCAARLAYGPRPMPSYEYYYWGQGTQVTVSS,low polyreactivity
22,QVQLAESGGGLVQAGGSLRLSCAASGSIFRLNAMGWYRQAPGKERELVAAINSGTNTYYADSVKGRFTISRDNAKNTVYLQMNSLKPEDTAVYYCAADWNDWHYDYWGQGTQVTVSS,low polyreactivity

row,Sequence,polyreactivity (PSR sort gate)
1,QVQLAESGGGLVQAGGSLRLSCAASGSIFRLNAMGWYRQAPGKERELVAAINSGTNTYYADSVKGRFTISRDNAMNTVYLQMNSLKPEDTAVYYCAADWNDWHYDYWGQGTQVTVSS,low polyreactivity
2,QVQLAESGGGLVQAGGSLRLSCAASGSILFNMGWYRQAPGKERELVAAIRYGGGRTYYADSVKGRFTISRDNAKNTVYLQMNSLKPEDTAVYYCAAPYKRNAGFDYWGQGTQVTVSS,low polyreactivity
3,QVQLEDSGGGLLQAGGSLRLSCAASGRILYLYTMGWYRQAPGKERELVAAISRGGSTYYADSVKGRFTISRDNAKNTVYLQMNSLNPEDTAVYYCSADARGYQFNYWGQGTQVTVSS,high polyreactivity
4,QVQLEDSGGGLVQAGGSLRLSCAASGFTFSYNAMGWYIQAPGKERELVAAISSRGTSTYYADSVKGRFTISRDNAKNTVYLQMNSLKPEDTAVYYCNTVPYFYLTFYPHYDYWGQGTQVTVSS,high polyreactivity
5,QVQLEDSGGGLVQAGGSLRLSCAASGRIFYTYAMGWYRQAPGKERELVAAINRSGSSTYYADSVKGRFTISRDNAKNNVYLQMNSLKPEDTAVYYCNAQSYLYYGWVLTDVDYWGQGTQVTVSS,low polyreactivity
6,QVQLEDSGGGLVQAGGSLRLSCAASGRTFPYKAMGWYRQAPGKERELVAAITSSGGSTYYADSVKGRFTISRDNAKNTVYLQMNSLKPEDTAVYYCAKGYYSPNYYYWGQGTQVTVSS,high polyreactivity
7,QVQLEDSGGGLVQAGGSLRLSCAASGRTLYLYAMGWYRQAPGKERELVAAIDWRGTSTYYADSVKGRFTISRDNAKNTVYLEMNSLKPEDTAVYYCNARFRSYLRWYQRDYWGQGTKVTVSS,low polyreactivity
8,QVQLEDSGGGLVQAGGSLRLSCAASGSIFATNAMGWYRQGPGKERELVAAISRSGASTYYADSVKGRFTISRDNAKNTVYLQMNRLKPEDTAVYYCNKVLYRDAYHSYGFEYWGQGTQVTVSS,high polyreactivity
9,QVQLEDSGGGLVQAGGSLRLSCAASGSTFILNAMGWYRDAPGKERELVATISSSDTSTYYADSVKGRFTISRDNAKNTVYLQMNSLKPEDTAVYYCNADYYTTSYLQRVYHYGVEYDYWGQGTQVTVSS,low polyreactivity
10,QVQLEDSGGGLVQAGGTHSLSCAASGFTFARNTMGWYRQAPGKERELVAAISWRGGRTYYADSVTGRFTISRDNAKNTDYLQMNRLKPEDRAVYYCNGVILKLGDALYDYWGEGTQVTVSS,high polyreactivity
11,QVQLEDSGGGLVQAGVSLRLSSDASGSTIAGYVMGWYRQAPGKERELVAAISRSGGSTYYADSVKGRFTISRDNEKNTVYLQMNSLKPEDTAVYYCASRNSPGFPGDYWGQGSQVTVSS,high polyreactivity
12,QVQLEDSLGGLVQAGGSLRLSCAASGGIFGLYDMGWYRQEPGKERELVAAISWSGGDTYYADSVKGRFTISRDNAKNTVYLQMNSLKPEDTAVYYCAADTYYYSGYEYDYWGQGTQVTVSS,high polyreactivity
13,QVQLEDSRVGLVQAVGILRLSCASSGSTIDDNVMGWYRQAPRNERELVAAICSSGGSPYYADSVKGRFTISRDNAKNTDYLLMNSLKPEDTAVYYCNAVYFRLWGYYDRRSYNYWGQGTQVTVSS,low polyreactivity
14,QVQLEEAVGGLLQAGGSLRFSCAASGGLFWVYAMGRYRQAPGKERELVAAISNSDTSTSYADSVKGRFTISRDNAQNTVYLQMNSLKAEDTAVYYCKADSPSLSGDSWGQGTQVNVSS,low polyreactivity
15,QVQLEESAGGLVQAGGSLRLSCAASGLTFNYYAMGWYRQAPGKERELVAAITGRGGSTYYADSVKGRFTISRDNAKNTVYLQMNSLKPEDTAVYYCAADGGTRGYDYWGQGTQVTVSS,low polyreactivity
16,QVQLEESGAALVQAGGSLRLSCAAMGWYRQSPGKERELLATITWSGGSTYYADSVKGRFTISRDNAKNTVYLQMNSLKPEDTAVYYCTARATLLSPANTIRGYDYWGQGTQVTVSS,low polyreactivity
17,QVQLEESGGGFVQAGGRLRLSCAASGSIFQAYFMGWYRQAPGKERELVADISRSGGRTYYADSVKGRFTISRDNAKNTVYLQMNSLKPEDTGVYYCAADWRHLLYRGGLQYEYWGQGTQVTVSS,high polyreactivity
18,QVQLEESGGGFVQAGGSLRLSCAASGYIFFPHAMGWYRQATWKERELVAAINSRGASTYYADSVKGRFTISRDNAKNTVSLQMNSLKPVDTAVYYCAKGSGLHIYHYYGVPYDYWGQGTQVTVSS,low polyreactivity
19,QVQLEESGGGIVQAGGSLRLSCAASGSTFRKYAMRWYRQAPGKERDFVAAITWSTGTTYYADSVKGRFTISRDNAKNTVYLQMNSLKPEDTAVYFCAADSQPPHELYESIEHESWGQGTQVTVSS,low polyreactivity
20,QVQLEESGGGLDQAGGSLRLSCAASGLILDYNDIGGYRQAAGQERELVASITGGGSTYYADSVKGRFRISRDNAKNTVYLQMNSLKPQDTSVYSCNADPVGVYCFDLDYWGQGTQVTVSS,low polyreactivity
21,QVQLEESGGGLDQAGGSLRLSCAASGRTLATYAMGWYRQAPGKERELVAAISSSGTRTYYADSVKGRFTISRDNAKNTVYFQMNSLNPEDTAVYYCNAGPGYDYWGQGTQLTVSS,high polyreactivity
